Measured values: the FLAb antibody collection (doi:10.7554/elife.23156)

B1: scFv; the commonest letter at each place (parent)
chain 1: EVKLDETGGGLVQPGRPMKLSCVASGFTFSDYWMNWVRQSPEKGLEWVAQIRNKPYNYETYYSDSVKGRFTISRDDSKSSVYLQMNNLRVEDMGIYYCTGSYYGMDYWGQGTSVTVS
chain 2: DVVMTQTPLSLPVSLGDQASISCRSSQSLVHSNGNTYLRWYLQKPGQSPKVLIYKVSNRFSGVPDRFSGSGSGTDFTLKISRVEAEDLGVYFCSQSTHVPWTFGGGTKLEIK

Columns and labels:
[1] = variants of: B1; experiment: Kd (Tite-Seq); conditions: with fluorescein; format: scFv 4-4-20, heavy + light
[2] = variants of: B1; experiment: yeast surface expression (ratio to wild type); higher = more expressed; conditions: format: scFv 4-4-20, heavy + light

With chain 1 EVKLDETGGGLVQPGRPMKLSCVASGFLFYDYWMNWVRQSPEKGLEWVAQIRNKPYNYETYYSDSVKGRFTISRDDSKSSVYLQMNNLRVEDMGIYYCTGSYYGMDYWGQGTSVTVS chain 2 DVVMTQTPLSLPVSLGDQASISCRSSQSLVHSNGNTYLRWYLQKPGQSPKVLIYKVSNRFSGVPDRFSGSGSGTDFTLKISRVEAEDLGVYFCSQSTHVPWTFGGGTKLEIK [chain 1 T28L S30Y] the Kd [1] was 0.00184 µM and the yeast surface expression [2] was 0.738.

For chain 1 EVKLDETGGGLVQPGRPMKLSCVASGFTFSDYWMNWVRQSPEKGLEWVAQIRNKPYNYETYYSDSVKGRFTISRDDSKSSVYLQMNNLRVEDMGIYYCTGSLYGMDYWKQGTSVTVS chain 2 DVVMTQTPLSLPVSLGDQASISCRSSQSLVHSNGNTYLRWYLQKPGQSPKVLIYKVSNRFSGVPDRFSGSGSGTDFTLKISRVEAEDLGVYFCSQSTHVPWTFGGGTKLEIK [chain 1 Y102L G109K], the Kd [1] was ≥ 10 µM and the yeast surface expression [2] was 0.214.

In the case of chain 1 EVKLDETGGGLVQPGRPMKLSCVASGFTFSDYWMNWVRQSPEKGLEWVAQIRNKPYNYETYYSDSVKGRFTISRDDSKSSVYLQMNNLRVEDMGIYYCTGGYYGERYWGQGTSVTVS chain 2 DVVMTQTPLSLPVSLGDQASISCRSSQSLVHSNGNTYLRWYLQKPGQSPKVLIYKVSNRFSGVPDRFSGSGSGTDFTLKISRVEAEDLGVYFCSQSTHVPWTFGGGTKLEIK [chain 1 S101G M105E D106R], the Kd [1] is reported as ≥ 10 µM and the yeast surface expression [2] is reported as 0.604.

For chain 1 EVKLDETGGGLVQPGRPMKLSCVASGFTTSDYWMNDVRQSPEKGLEWVAQIRNKPYNYETYYSDSVKGRFTISRDDSKSSVYLQMNNLRVEDMGIYYCTGSYYGMDYWGQGTSVTVS chain 2 DVVMTQTPLSLPVSLGDQASISCRSSQSLVHSNGNTYLRWYLQKPGQSPKVLIYKVSNRFSGVPDRFSGSGSGTDFTLKISRVEAEDLGVYFCSQSTHVPWTFGGGTKLEIK [chain 1 F29T W36D], the Kd [1] was ≥ 10 µM and the yeast surface expression [2] was 0.484.

With chain 1 EVKLDETGGGLVQPGRPMKLSCVASGFTFFDYWENWVRQSPEKGLEWVAQIRNKPYNYETYYSDSVKGRFTISRDDSKSSVYLQMNNLRVEDMGIYYCTGSYYGMDYWGQGTSVTVS chain 2 DVVMTQTPLSLPVSLGDQASISCRSSQSLVHSNGNTYLRWYLQKPGQSPKVLIYKVSNRFSGVPDRFSGSGSGTDFTLKISRVEAEDLGVYFCSQSTHVPWTFGGGTKLEIK [chain 1 S30F M34E] the Kd [1] was ≤ 0.000316 µM and the yeast surface expression [2] was 0.0981.

In the case of chain 1 EVKLDETGGGLVQPGRPMKLSCVASGFTFSDYWMNWVRQSPEKGLEWVAQIRNKPYNYETYYSDSVKGRFTISRDDSKSSVYLQMNNLRVEDMGIYYCTGSYYGYDYRGQGTSVTVS chain 2 DVVMTQTPLSLPVSLGDQASISCRSSQSLVHSNGNTYLRWYLQKPGQSPKVLIYKVSNRFSGVPDRFSGSGSGTDFTLKISRVEAEDLGVYFCSQSTHVPWTFGGGTKLEIK [chain 1 M105Y W108R], the Kd [1] is reported as ≥ 10 µM and the yeast surface expression [2] is reported as 0.286.

In the case of chain 1 EVKLDETGGGLVQPGRPMKLSCVASGFHFSDYWHNWRRQSPEKGLEWVAQIRNKPYNYETYYSDSVKGRFTISRDDSKSSVYLQMNNLRVEDMGIYYCTGSYYGMDYWGQGTSVTVS chain 2 DVVMTQTPLSLPVSLGDQASISCRSSQSLVHSNGNTYLRWYLQKPGQSPKVLIYKVSNRFSGVPDRFSGSGSGTDFTLKISRVEAEDLGVYFCSQSTHVPWTFGGGTKLEIK [chain 1 T28H M34H V37R], the Kd [1] is reported as ≥ 10 µM and the yeast surface expression [2] is reported as 2.76.

chain 1 EVKLDETGGGLVQPGRPMKLSCVASGFTFSDYWMNFCRQSPEKGLEWVAQIRNKPYNYETYYSDSVKGRFTISRDDSKSSVYLQMNNLRVEDMGIYYCTGSYYGMDYWGQGTSVTVS chain 2 DVVMTQTPLSLPVSLGDQASISCRSSQSLVHSNGNTYLRWYLQKPGQSPKVLIYKVSNRFSGVPDRFSGSGSGTDFTLKISRVEAEDLGVYFCSQSTHVPWTFGGGTKLEIK [chain 1 W36F V37C] gave a Kd [1] of 0.000454 µM and a yeast surface expression [2] of 0.75.

In the case of chain 1 EVKLDETGGGLVQPGRPMKLSCVASGFTFSDIWMNWVRQSPEKGLEWVAQIRNKPYNYETYYSDSVKGRFTISRDDSKSSVYLQMNNLRVEDMGIYYCTGSYYGMDYWGQGTSVTVS chain 2 DVVMTQTPLSLPVSLGDQASISCRSSQSLVHSNGNTYLRWYLQKPGQSPKVLIYKVSNRFSGVPDRFSGSGSGTDFTLKISRVEAEDLGVYFCSQSTHVPWTFGGGTKLEIK [chain 1 Y32I], the Kd [1] is reported as ≥ 10 µM and the yeast surface expression [2] is reported as 0.938.

For chain 1 EVKLDETGGGLVQPGRPMKLSCVASGFTFNDYWMNWWRQSPEKGLEWVAQIRNKPYNYETYYSDSVKGRFTISRDDSKSSVYLQMNNLRVEDMGIYYCTGSYYGMDYWGQGTSVTVS chain 2 DVVMTQTPLSLPVSLGDQASISCRSSQSLVHSNGNTYLRWYLQKPGQSPKVLIYKVSNRFSGVPDRFSGSGSGTDFTLKISRVEAEDLGVYFCSQSTHVPWTFGGGTKLEIK [chain 1 S30N V37W], the Kd [1] was ≥ 10 µM and the yeast surface expression [2] was 0.654.

chain 1 EVKLDETGGGLVQPGRPMKLSCVASGFTFSDYWMNWVRQSPEKGLEWVAQIRNKPYNYETYYSDSVKGRFTISRDDSKSSVYLQMNNLRVEDMGIYYCTGSYYGMDYWDQGTSVTVS chain 2 DVVMTQTPLSLPVSLGDQASISCRSSQSLVHSNGNTYLRWYLQKPGQSPKVLIYKVSNRFSGVPDRFSGSGSGTDFTLKISRVEAEDLGVYFCSQSTHVPWTFGGGTKLEIK [chain 1 G109D] showed a Kd [1] of 3.64 µM and a yeast surface expression [2] of 0.573.

With chain 1 EVKLDETGGGLVQPGRPMKLSCVASGFTFSDYWMNWVRQSPEKGLEWVAQIRNKPYNYETYYSDSVKGRFTISRDDSKSSVYLQMNNLRVEDMGIYYCTGWYYGMDKWGQGTSVTVS chain 2 DVVMTQTPLSLPVSLGDQASISCRSSQSLVHSNGNTYLRWYLQKPGQSPKVLIYKVSNRFSGVPDRFSGSGSGTDFTLKISRVEAEDLGVYFCSQSTHVPWTFGGGTKLEIK [chain 1 S101W Y107K] the Kd [1] was ≥ 10 µM and the yeast surface expression [2] was 0.427.
